B1: Homeobox protein cut-like 1, residues 548 to 629; numbered along this chain, P39880 (parent)
chain: GEEMDTAEIARQVKEQLIKHNIGQRIFGHYVLGLSQGSVSEILARPKPWNKLTVRGKEPFHKMKQFLSDEQNILALRSIQGR

Variants of: B1
Assay: abundance fitness (aPCA) (normalised: wild type 0, dead -1); higher = more abundant; growth selection in yeast, the domain comes from the species named
Settings: Homo sapiens

Abundance fitness of substitutions, site by site:
G23: C -0.054 | D 0.114 | Q 0.043 | L -0.081 | S 0.023 | M -0.12 | F -0.293 | I -0.309 | W -0.268 | P 0.08 | T -0.013 | Y -0.108 | H -0.009 | N 0.105
E8: S -0.119 | N -0.211 | H -0.135 | Q -0.104 | M -0.149 | R -0.17 | L -0.091 | W -0.231 | T -0.118 | P -0.979 | K -0.113 | I -0.22 | V -0.135
I26: L -0.002 | N -0.261 | G -0.547 | C -0.058 | K -0.152 | M -0.082 | V 0.034 | S -0.14 | P -0.517 | R -0.401 | A -0.056 | H -0.056 | F -0.078 | T 0.009 | D 0.023 | Y -0.107 | W -0.083
Q24: F -0.094 | Y -0.013 | I -0.032 | P -0.079 | M -0.032 | S -0.118 | T -0.069 | R -0.159 | A -0.129 | E 0.053 | N -0.069 | C -0.108 | W 0.025 | G -0.386 | V 0.043 | D -0.091 | H 0.021
R11: G -0.18 | K 0.069 | N -0.205 | V -0.311 | T -0.131 | Y -0.249 | M -0.112 | W -0.506 | F -0.243 | H -0.102 | Q -0.24 | A -0.157 | P -0.646 | C -0.327 | D -0.274
N21: E -0.04 | Y -0.469 | M -0.378 | T -0.305 | K -0.055 | G 0.025 | H 0.009 | C -0.181 | V -0.518 | R -0.115 | D -0.03 | F -0.534 | S -0.084 | Q -0.021 | I -1.06 | W -0.759 | P -0.72 | A -0.151
G28: N -0.259 | C -0.223 | E -0.188 | S -0.05 | F -0.329 | W -0.764 | R -0.52 | D -0.349 | K -0.745 | M -0.241 | H -0.485 | I -0.233 | A 0.018 | P -0.726 | V -0.452 | Q -0.457 | Y -0.374 | T -0.47
Y30: E -0.034 | F -0.126 | A -0.082 | C -0.065 | D -0.337
I18: N 0.012 | H -0.052 | L -0.031 | F 0.085 | M -0.005 | A 0.007 | Q 0.084 | Y 0.008 | V 0 | S 0.014 | E 0.064 | G -0.105 | W -0.13 | C 0.014 | K 0.075
I9: E -0.517 | S -0.672 | F -0.547 | Q -0.583 | Y -0.495 | K -0.508 | V -0.103 | M -0.292 | G -0.623 | C -0.459 | P -0.605 | W -0.82 | H -0.56 | A -0.695 | T -0.267 | R -0.69 | D -0.428 | L -0.13 | N -0.643
Q16: H -0.113
E15: T -0.143 | I -0.003 | L -0.03 | A -0.023 | Q -0.077 | S 0.034 | R -0.207 | F -0.363 | G -0.332 | Y -0.091 | N -0.328 | D -0.211 | K -0.573 | C 0.094 | V -0.19

From the Human Domainome abundance scans (Beltran et al. 2025)
